# Values quoted from earlier work as cited in PMC7596073.
# “And” between values parts separate entries of the source, which are not always exact repeats. Equal entries are not always repeated.
# Biological target: IL-18BP (Homo sapiens) (UniProt O95998)
# Sequence (O95998 31-194): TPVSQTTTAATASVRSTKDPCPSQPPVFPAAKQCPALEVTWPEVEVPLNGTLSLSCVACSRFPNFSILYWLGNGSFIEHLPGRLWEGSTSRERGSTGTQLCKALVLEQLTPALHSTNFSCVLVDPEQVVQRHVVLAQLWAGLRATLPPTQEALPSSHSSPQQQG
# Chain of IL-18 (Q14116 37-193): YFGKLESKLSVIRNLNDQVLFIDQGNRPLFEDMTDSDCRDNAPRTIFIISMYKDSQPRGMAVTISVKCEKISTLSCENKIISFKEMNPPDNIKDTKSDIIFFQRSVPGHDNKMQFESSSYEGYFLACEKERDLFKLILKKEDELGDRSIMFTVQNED
substance,measurement,value
IL-18 (from UniProt Q14116),Kd,0.04 nM and 0.4 nM
